Assay [1] addresses T1, Png1p-ΔH1 (33-363 aa), N-terminal H1 helix deletion mutant of S. cerevisiae Png1p (S. cerevisiae, UniProt Q02890 33-363).
T1 construct: Png1p (peptide:N-glycanase), S. cerevisiae W303-1a, amino acids 33-363 (lacks the N-terminal H1 helix), cloned into EcoRI and HindIII sites of pET-22b(+); Plasmid pET-22b/png1p-ΔH1; eluted as 'Protein-His6'; also called N-terminal H1 deletion mutant; source: E. coli BL21 (DE3) pLysS, purified (Ni2+-NTA)
T1 sequence (looked up): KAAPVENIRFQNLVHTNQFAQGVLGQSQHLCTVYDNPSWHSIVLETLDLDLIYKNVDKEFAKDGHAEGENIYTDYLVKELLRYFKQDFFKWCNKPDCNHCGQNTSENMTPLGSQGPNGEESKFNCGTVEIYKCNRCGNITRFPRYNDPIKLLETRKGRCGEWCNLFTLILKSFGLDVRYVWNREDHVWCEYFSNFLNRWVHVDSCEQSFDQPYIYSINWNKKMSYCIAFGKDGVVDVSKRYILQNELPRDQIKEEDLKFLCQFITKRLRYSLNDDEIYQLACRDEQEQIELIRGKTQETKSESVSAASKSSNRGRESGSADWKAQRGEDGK
The assay can be described thus: SPR; RNase B (40 µg/ml, 10 mM sodium acetate pH 5.31) amine-coupled to a CT405 chip; Png1p or Png1p-ΔH1 as analytes (80-1000 nM), 25°C, 10 mM HEPES pH 7.4, 5 µl/min; 1:1 Langmuir model, global fit; KD = koff/kon. The following applies: both partners purified. In general terms: Surface plasmon resonance follows binding to a sensor surface in real time, without labels.

Assay [2] concerns the target T2, Peptide:N-glycanase from yeast (Png1p), full length (S. cerevisiae, UniProt Q02890 1-363).
T2 construct: Png1p (peptide:N-glycanase), S. cerevisiae W303-1a, gene amplified from genomic DNA, amino acids 1-363, cloned into EcoRI and HindIII sites of pET-22b(+); Plasmid pET-22b/png1p; eluted as 'Protein-His6'; The vector may add further residues at the N-terminus (cloning at EcoRI of pET-22b); also called PNGase; wild type Png1p; source: E. coli BL21 (DE3) pLysS, purified (Ni2+-NTA)
T2 sequence (looked up): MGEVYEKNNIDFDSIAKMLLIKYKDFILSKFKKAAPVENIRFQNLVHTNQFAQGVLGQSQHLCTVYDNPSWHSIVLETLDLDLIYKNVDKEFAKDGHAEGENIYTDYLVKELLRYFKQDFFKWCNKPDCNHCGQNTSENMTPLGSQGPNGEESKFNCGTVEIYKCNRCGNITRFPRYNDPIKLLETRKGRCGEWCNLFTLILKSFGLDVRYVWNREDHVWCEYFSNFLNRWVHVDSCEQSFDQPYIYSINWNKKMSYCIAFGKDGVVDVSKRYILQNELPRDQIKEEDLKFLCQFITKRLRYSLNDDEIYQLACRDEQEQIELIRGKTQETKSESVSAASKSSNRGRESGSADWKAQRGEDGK
Described as above. The following applies: both partners purified.

The values that follow come from paper PMC2791212, “N-Terminal Deletion of Peptide:N-Glycanase Results in Enhanced Deglycosylation Activity” (PLoS ONE, 2009).

B1: Ribonuclease B (RNase B), denatured (natural protein, UniProt P61823 27-150, looked up)
chain: KETAAAKFERQHMDSSTSAASSSNYCNQMMKSRNLTKDRCKPVNTFVHESLADVQAVCSQKNVACKNGQTNCYQSYSTMSITDCRETGSSKYPNCAYKTTQANKHIIVACEGNPYVPVHFDASV
modifications: N-linked glycan (glycoprotein; position not stated)
notes: Ribonuclease B, the glycosylated form of pancreatic ribonuclease; Denatured by heating at 100°C for 10 min and rapid freezing (deglycosylation methods); also called denatured RNase B
In the case of B1, in assay [1], the Kd (commonly the constant that tells how readily two partners part at equilibrium) was 2.9 µM; the koff – broadly, the rate constant with which the complex falls apart – amounted to 0.05 s⁻¹; the kon (usually a measure of how fast the partners come together) is 17000 M⁻¹ s⁻¹. In assay [2], this molecule displayed a Kd of 7.7 µM, a koff of 0.094 s⁻¹ and a kon of 12200 M⁻¹ s⁻¹.
